Experimental findings from patent US20140065069A1, “Materials and Methods Relating to Cardiovascular Imaging” (KING'S COLLEGE LONDON, priority 2011, published 2014) are described below.

The target in one data set is T1, tropoelastin (Mus musculus, UniProt P54320).
T1 construct: from tissue; host or cells: plaque-laden brachiocephalic artery and aortic arch of living HFD-fed ApoE-/- mice
T1 sequence (P54320 28-860): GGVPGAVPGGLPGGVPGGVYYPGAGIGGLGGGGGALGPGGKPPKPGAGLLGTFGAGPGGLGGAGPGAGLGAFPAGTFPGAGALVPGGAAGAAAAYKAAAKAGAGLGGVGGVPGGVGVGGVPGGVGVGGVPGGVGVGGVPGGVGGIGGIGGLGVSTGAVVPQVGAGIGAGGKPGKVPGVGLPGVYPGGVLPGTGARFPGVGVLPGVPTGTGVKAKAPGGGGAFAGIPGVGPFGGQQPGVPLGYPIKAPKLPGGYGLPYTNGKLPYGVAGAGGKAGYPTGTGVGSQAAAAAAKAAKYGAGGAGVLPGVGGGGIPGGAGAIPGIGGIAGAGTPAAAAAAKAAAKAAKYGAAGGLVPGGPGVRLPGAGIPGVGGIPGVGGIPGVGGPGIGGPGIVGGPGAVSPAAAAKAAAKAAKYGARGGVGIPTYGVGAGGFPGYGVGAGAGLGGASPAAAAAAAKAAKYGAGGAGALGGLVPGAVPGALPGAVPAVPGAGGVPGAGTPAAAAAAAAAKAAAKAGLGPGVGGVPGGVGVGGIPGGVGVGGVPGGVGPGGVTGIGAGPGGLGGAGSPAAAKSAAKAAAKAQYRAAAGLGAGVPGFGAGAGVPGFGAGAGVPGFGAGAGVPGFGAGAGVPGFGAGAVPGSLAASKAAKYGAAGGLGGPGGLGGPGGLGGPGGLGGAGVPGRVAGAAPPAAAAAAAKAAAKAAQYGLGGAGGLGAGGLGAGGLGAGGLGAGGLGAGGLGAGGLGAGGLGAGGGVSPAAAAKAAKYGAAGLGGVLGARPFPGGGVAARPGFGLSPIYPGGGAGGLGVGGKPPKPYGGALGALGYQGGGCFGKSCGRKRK
The experiment in a line: In vivo imaging of plaques in HFD fed ApoE−/− mice with gadolinium labelled conjugates. The settings on record: gadolinium labelled conjugate. The text has this: MRI will be performed in a mouse model of progressive atherosclerosis at 4, 8 and 12 weeks post commencement of a high fat diet and in a model of angiotensin-II (Ang-II) induced aortic aneurysm formation at 1, 2, 3 and 4 weeks post Ang-II releasing mini pump implantation. Ten mice will be scanned at each time point either receiving the tropoelastin or TNF-alpha binding contrast agent (CA) resulting in a total of […], respectively. Animals will undergo a pre and post contrast MRI session at each time point and subsequently will be sacrificed for validation with histology, immunostaining, electron and mass spectroscopy.

Entries after “also recorded” stand apart in the source; their conditions may differ. No end group written: not given here. Bounds are passed on as bounds.

“(DOTA-Gd)-VVGSPSAQDEASPLS (not fully specified (N-terminus); printed as (DOTA-Gd)-VVGSPSAQDEASPLS; also: Gd complexed by DOTA)”: in the data set with tropoelastin, the “uptake in plaque-free carotid artery” value is given as “no uptake; also recorded: not in the plaque-free carotid artery”; the “uptake in plaque-laden brachiocephalic artery (BCA) and aortic arch” value is given as “preferential uptake”. Where the note is “12 weeks HFD fed ApoE−/− mice”, the “time of imaging post contrast injection” value was at least 1 h. Also, where the note is “HFD fed ApoE−/− mice”, the biodistribution result is “favourable biodistribution” and the renal clearance result is given as “rapid renal clearance”.

With “K(DOTA-Gd)-YPDHVQYTHY (not fully specified (N-terminus); printed as K(DOTA-Gd)-YPDHVQYTHY; also: Gd complexed by DOTA on the N-terminal Lys) [K-(DOTA-Gd)-YPDHVQYTHY]”, in the data set with tropoelastin, the “uptake in plaque-free carotid artery” value is reported as “no uptake”; the “uptake in plaque-laden brachiocephalic artery (BCA) and aortic arch” value is listed as “preferential uptake”.
